Here are results for 17 sequences from the DeepSol protein solubility set.

The series is described as follows: soluble on expression in E. coli; label from the status in PepcDB or PDB records.
Regarding “MSTDKITFLLNWQPTPYHIPIFLAQTKGYFKEQGLDMAILEPTNPSDVTELIGSGKVDMGLKAMIHTLAAKARGFPVTSVASLLDEPFTGVLYLKGSGITEDFQSLKGKKIGYVGEFGKIQIDELTKHYGMKPEDYTAVRCGMNVAKYIIEGKIDAGIGIECMQQVELEEYLAKQGRPASDAKMLRIDKLACLGCCCFCTVLYICNDEFLKKNPEKVRKFLKAIKKATDYVLADPVKAWKEYIDFKPQLNNDLSYKQYQRCYAYFSSSLYNVHRDWKKVTGYGKRLAILPPDYVSNYTNEYLSWPEPEEVSDPLEAQRLMAIHQEKCRQEGTFKRLALPA”, the “soluble on expression in E. coli” value is on record as “soluble”. On to “VTKIVSHRGANRFAPENTFAAADLALQQGADYIELDVRESADGVLYVIHDETLDRTTNGTGPVGHMLSSEIDTLDAGGWFDDRFKGAIVPRLDAYLEHLRGRAGVYIELKYCDPAKVAALVRHLGMVRDTFYFSFSEEMRQGLQSIAPEFRRMMTLDIAKSPSLVGAVHHASIIEITPAQMRRPGIIEASRKAGLEIMVYYGGDDMAVHREIATSDVDYINLDRPDLFAAVRSGMAELLLASNSSSTC”, for which the “soluble on expression in E. coli” value was “soluble”. For the sequence “MNQNDNRIFRKEDLDWKELETIGIHKEELEKSGDMELLLQGEETETVPLKIRTSALRLTMDATLRITVGTDGKPVMEINGISPEAESEAGG”, the “soluble on expression in E. coli” value is recorded as “not soluble”. Take “MAHHHHHHMRSLPNIIVTGVPGVGKTTLCEELVEILNKQLKENQQAESASQMKHLNLSKVIKEERLYEEFDDQLDASIYSSDMVNEKLEKLKLENGGYIIDFHDVDFLDEKELIDHIFLLTASTNKLYERLEKRNYSEEKIKNNIECEIFQVIKEDILTSYNDPSIFDELENNDMEQYESNLQLIKGWVLSWVKNGVAMPR”: the “soluble on expression in E. coli” value is reported as “soluble”. With “MAGKVKWVTDIEKSVLINNFEKRGWIQVTDSEDWNFYWMSIQTIRTVFSVDTGYRLTDDQMVNHFPNHYELTRKDLMIKNIKRYRRELEKENSALAEKDDSGKYIYLDFVPVTFMLPADYNLFVEEFRKSPSSTWIMKPCGKAQGKGIFLINKLSQIKKWSRDSRTSTFVAANSGKEAYVISLYIDNPLLIGGKKFDLRLYVLVTTYRPLKCYMWVQESSE”, the “soluble on expression in E. coli” value is reported as “not soluble”.

On to “MSPQDTCCPPDSWPALKVDYKPKGKLEDIGKGLKAYVVGNGPRAVIALNDVFGIESGHSKEICDAIADKGFTVVFPDVFRGKPLQVSDMSKLFDELPGWAKQFDYEPALRKDVVEVILPYLHDKLGFKSNDQIALAGFCWGAFMLFHLAGDTKLPGGPFACGVSFHPSVQIEGVFQRDPLQLIDRATCPQLLLPSAGEPDYMKEEGDAIKKLRAKPFGASCGVKTFPSMQHGWVNRGDRNDPQVVKEAQEALQLAVDFMMRHTKPKA”, for which the “soluble on expression in E. coli” value is “not soluble”. For “MGSDKIHHHHHHMTTSYAKIEITGTLTVLTGLQIGAGDGFSAIGAVDKPVVRDPLSRLPMIPGTSLKGKVRTLLSRQYGADTETFYRKPNEDHAHIRRLFGDTEEYMTGRLVFRDTKLTNKDDLEARGAKTLTEVKFENAINRVTAKANLRQMERVIPGSEFAFSLVYEVSFGTPGEEQKASLPSSDEIIEDFNAIARGLKLLELDYLGGSGTRGYGQVKFSNLKARAAVGALDGSLLEKLNHELAAV”, the “soluble on expression in E. coli” value was “not soluble”. On to “MSLLNPVLLPPKVKAYLSQGERFIKWDDETTVASPVILRVDPKGYYLYWTYQSKEMEFLDITSIRDTRFGKFAKMPKSQKLRDVFNMDFPDNSFLLKTLTVVSGPDMVDLTFHNFVSYKENVGKAWAEDVLALVKHPLTANASRSTFLDKILVKLKMQLNSEGKIPVKNFFQMFPADRKRVEAALSACHLPKGKNDAINPEDFPEPVYKSFLMSLCPRPEIDEIFTSYHAKAKPYMTKEHLTKFINQKQRDSRLNSLLFPPARPDQVQGLIDKYEPSGINAQRGQLSPEGMVWFLCGPENSVLAQDKLLLHHDMTQPLNHYFINSSHNTYLTAGQFSGLSSAEMYRQVLLSGCRCVELDCWKGKPPDEEPIITHGFTMTTDIFFKEAIEAIAESAFKTSPYPIILSFENHVDSPRQQAKMAEYCRTIFGDMLLTEPLEKFPLKPGVPLPSPEDLRGKILIKNKKNQFSGPTSSSKDTGGEAEGSSPPSAPAVWAGEEGTELEEEEVEEEEEEESGNLDEEEIKKMQSDEGTAGLEVTAYEEMSSLVNYIQPTKFVSFEFSAQKNRSYVISSFTELKAYDLLSKASVQFVDYNKRQMSRIYPKGTRMDSSNYMPQMFWNAGCQMVALNFQTMDLPMQQNMAVFEFNGQSGYLLKHEFMRRPDKQFNPFSVDRIDVVVATTLSITVISGQFLSERSVRTYVEVELFGLPGDPKRRYRTKLSPSTNSINPVWKEEPFVFEKILMPELASLRVAVMEEGNKFLGHRIIPINALNSGYHHLCLHSESNMPLTMPALFIFLEMKD”, for which the “soluble on expression in E. coli” value is given as “soluble”. For the sequence “MRTDLALDFSVNKENKTITIKREFAAVRAIVWEAFTRAEILDQWWAPKPWKAKTKSMDFKEGGTWLYAMVGPNGEEHWSICEYAIIKPIERFTGKDGFTDASGKLNTEMPRSNWDMRFIDKGEITEVQYHISYDDVAQLEATIQMGFKEGITMAMENLDELLVSGKKLEHHHHHH”, the “soluble on expression in E. coli” value was “soluble”. The entry for “MLKIISANVNGIRSAYKKGFYEYIAASGADIVCVQELKAQEADLSADMKNPHGMHGHWHCAEKRGYSGVAVYSKRKPDNVQIGMGIEEFDREGRFVRCDFGRLSVISLYLPSGSSAEERQQVKYRFLDAFYPMLEAMKNEGRDIVVCGDWNIAHQNIDLKNWKGNQKNSGFLPEEREWIGKVIHKLGWTDMWRTLYPDVPGYTWWSNRGQAYAKDVGWRIDYQMVTPELAAKAVSAHVYKDEKFSDHAPLVVEYDYAAE” is “soluble”; for “MDFKYDVIVIGAGHAGCEAAAAAANLGSKTCLITMDMNKIGQMSCNPAVGGIAKGQIVREIDALGGQMGLVTDETAIQFRILNRSKGPAMWSPRAQCDRAKFIWSWREKLENTPNLHIWQDTVCELLVENGEVVGLVTLWGVTFKAKCIVLTAGTFLNGLMHVGRHQLPGGRMAEPASYQLTESIARHGIAYGRMKTGTPVRIDARSIHFDLMDTQDGECDFHKFSFMNTSTRHLKQLQCWTCYTNEEVHRILREGLPDSPLFNGQIQSIGPRYCPSIETKIVTFPDKEQHQLFLEPEGETTQELYLNGFSSSLPMDIQIAALKKVPAFKDIVIYRPGYAIEYDYFDPTQLKHSLESKIIKNLFFAGQVNGTTGYEEAGGQGLIAGINAHINCHGGEAFTLARDEAYIGVLIDDLVTKGVDEPYRMFTSRAEYRILLRMDDADMRLTERAYHLGLAREDRYQLMKTKKEALEQIVNFAKNYSMKPALINDALEKLGTTPLRQGCKLIEILNRPQITIENIAEHVPAFQRELEKATAADSDRKEEILEAAEILIKYQGYIDRERMIAEKLARLESIKIKGKFDYASIQSLSTEARQKLVKIDPETIAQASRIPGVSPSDINVLLVLSGR” it is “not soluble”; for “AIATLEKKEYGAPGFWPGSMIGRVHAFETPAPLTRAQLDRLRDEFFETRTEGHLEIWTAIRAASHAQEAGDDELAYAIITAVGILPAEVGPAGEGLGERIPFAEQPLDRLLGMICGCCFPAFTRYRTLERVYDQRGFLYETPKECIATPSNVLPDESTEASAR” it is “soluble”.

In the case of “MHTFILLLTVLCAGAYTQFTANGQAAILNVHNTLRSRIAKGTYVARGTVKHAASDMLKMKWLRSLATSSQIYANRCPTGHSNMIGVGENLYWYWTSGTITNIDQFGAMASAAWEKEFQDYGWSSNTLTMSLFNSGVGHATQMAWAKTNLIGCGVKNCGMDTNGMNKVAVVCHYQPQGNYLNQNIYTSGTTCSKCPAGTSCEAATGLCV”, the “soluble on expression in E. coli” value was “not soluble”.

Take “MPGDSMCQAMAGNERHMLTSVKTGTYTMPVLHNRVSNEELKARMLAETEPRTTVSFYKYFTIDDPKAFRDRLYIQLEQYKVFGRIYIAAEGINAQISVPNNQFDAFKTGLFSAHPALDQIRLNIALEDDGKSFWVLRMKVRERIVADGIDDPTFNPANVGQYLKADRVNAMADDPDTVFVDMRNHYEYEVGHFQNALEVPSDTFREQLPMAVDMLDDIRDKNIVMYCTGGIRCEKASAYMLHHGFKNVYHVEGGIIEYARQAKAQGLPLKFIGKNFVFDERMGERISDDVIAHCHQCGASCDSHTNCRNEGCHLLFIQCPSCAAKYEGCCSTQCQDEMKLPLEEQRAIRSGRENGMKIFNKSKGLLQSTLHIPAPAAKDNAELEHHHHHH”: the “soluble on expression in E. coli” value was “not soluble”. With “MSLRRPYEALRGHFEKCLATPLRPMNLRTLAGNDKGYIHTAVEQLGARTARSYRAIYSEVQKRSLDREINARLSPLESICRREFECCVELSELAEVYLRKMERGEICDADTSQPNEIIDDAQVDSIMKGEGYGGSGNSGGDSSVKRLIDVLESLRPHENLFDIVVNEEWICSPNFNNWLSRFCTRRVSWRVIHEHLLHLVGPGRYSPIIRTDPNVGSILRHTGTVVVEQYVRSIQSIHGGSMFIHMEEQPDLFTRVPSGRLATSSKVDCPIFPTTSMPPAPSSRVIYSVEGHLEYVFRELMKNACLAMRSRTNSIELQVCFASNDTHVVVDVTDAAGGIAPDAVEKLWLFGWTTNSSFDNKMGGFGIGLPASKCYMDLWGGRIDLYTTEGVGTTVRVIFPKAPTEVFVPKGTEGHHHHHH”, the “soluble on expression in E. coli” value is “soluble”. Turning to “MNNNELYVSLDLGTSNTKVIVGEMTGDSLNIIGVGNVPSEGLKKGSIVDIDETVHSIRKAFDQAERMVGFPLRKAIVGVNGNYINIQDTNGVVAVSSENKEIQVEDVRRVMAAAQVVSVPHEQLIVDVIPKQFIVDGRDEITDPKKMLGVRLEVEGTLITGSKTILHNLLRCVERAGIEITDICLQPLAAGSAALSKDEKNLGVALIDIGGGSTTIAVFQNGHLTSTRVIPLGGENITKDISIGLRTSTEEAERVKKQLGHAYYDEASEDEIFEVTVIGTNQKQTFTQQEAANIIEARVEEILEIVSEELRSMGITDLPGGFVLTGGQAAMPGVMSLAQDVLQNNVRVQGPNYIGVRDPQYMTGVGLIQFACRNARIQGRKIGFKMPEEAIQEIAVSSSEEQEQHHHQNEVQQRPKGKQKTQAEHNKQSKMKKLLSMFWE”, the “soluble on expression in E. coli” value is recorded as “not soluble”. In the case of “MGSDKIHHHHHHMIQLHVYEEIVNFKEEVTPFLEKNEQENNLILGVLQMVHQPIFMGIAKQGEEIAVVFLQTEEKKQIIVATSEISGVAIKELAKELTKIYPDIPGLIGDKKVVQHLAEEIAVLENKKTNVVMEQGVYELKEVKKKPSEDGFFREVSSDELTLIEEWIYQFCEDVNLPTTKEEAKQTAHTLITNHRLFGLEVDGKLVSVAAKTRPTKNNITVNFVYTPKEARKKGYASNCVAALSQRMLDEGYKTTTLYTDLANPTSNKIYQEIGYEQIAESVLIFLEK”, the “soluble on expression in E. coli” value is listed as “not soluble”.
